According to publication PMC2908543, “Uropathogenic Escherichia coli Modulates Immune Responses and Its Curli Fimbriae Interact with the Antimicrobial Peptide LL-37” (PLoS Pathogens, 2010):

Columns and labels:
[1] = biological target: recombinant CsgA-His6 (E. coli) (UniProt P28307)
[2] = biological target: recombinant CsgA-His6 (E. coli) (UniProt P28307); test: thioflavin T fluorescence quantified by confocal microscopy; monomeric CsgA with equimolar LL-37, sLL-37 or VIP and 20 µM ThT, over night at 37°C, washed; fluorescence relative to CsgA alone

human antimicrobial peptide LL-37
curli-mediated biofilm formation of E. coli in microtiter plates (crystal violet), reduction by 2.5 µM LL-37; the pair blocked is CsgA with CsgA (polymerization) [1]: > 80% | ThT fluorescence of CsgA with the peptide at 1:1, relative to CsgA alone (1 arbitrary unit) (arbitrary units) [2]: 0.05
